Laboratory results: article PMC6521699

Experiments:
[1] = target: human IL-2 receptor βƔc heterodimer (human) (UniProt P14784); test: SPR
[2] = target: mouse IL-2 receptor βƔc heterodimer (mouse); test: SPR
[3] = target: mouse IL-2Rβ ectodomain, biotinylated (mouse); test: SPR
[4] = target: human IL-2 receptor βƔc heterodimer (human) (UniProt P14784)
[5] = target: mouse IL-2 receptor βƔc heterodimer (mouse)
[6] = target: human IL-2Rβ, biotinylated (human) (UniProt P14784); test: SPR
[7] = target: IL-2Rβγc (species not stated, Figure E3d) (not stated (human and mouse receptors made)) (UniProt P14784); test: BLI

Molecule	Kd [1] [nM]	Kd [2] [nM]	Kd [3] [nM]	EC50 of STAT5 phosphorylation in IL-2Rα- (CD25-) human YT-1 NK cells [4] [nM]	EC50 of STAT5 phosphorylation in IL-2Rα- mouse primary T cells [5] [nM]	Kd [6] [nM]	Kd [7] [nM]
Super-2 / Superkine (from UniProt P60568 21-153) (ligand)	301	312	214				
Neoleukin-2/15 (designed binder)	18.8	38.4	16.1	0.05	0.13	11.2	6.9
human interleukin-2 (from UniProt P60568 21-153) (ligand)		492	8110				
mouse interleukin-2 (ligand) APTSSSTSSSTAEAQQQQQQQQQQQQHLEQLLMDLQELLSRMENYRNLKLPRMLTFKFYLPKQATELKDLQCLEDELGPLRHVLDLTQSKSFQLEDAENFISNIRVTVVKLKGSDNTFECQFDDESATVVDFLRRWIAFCQSIISTSPQ			1500				
